Source: patent US6124262A, “Compositions and methods for reducing adhesiveness of defective red blood cells” (The Regents of the University of California, dated 2000)
Blank lines part the entries; values can stand above or below the molecule they belong to. Where no end group is shown, it is not given here. [ ]: non-standard residue; d: D form.

Tests used:
[1] = test system: P. falciparum-infected erythrocytes (rosetting); type: cell-based; details: FIG. 3B; read-out: IC50, competitive inhibition of rosetting
Description: (§1) The Gambian FCR-3 strain of P. falciparum was cultured according to the literature method [Trager, W. & J. Jensen (1976) Science 193:673-675]. Cultures were synchronized at the ring stage by sorbitol lysis of mature forms [Lambros, C. & J. P. Vanderberg (1980) J. Parasitology 65:418-20]. Knobless parasite cultures were produced from a knobby FCR-3 line and maintained as described previously [Crandall, I. E. et al. (1994) Cell Adhesion & Communication 2(6):503-510].
(§2) Cytoadherence assays were carried out as described previously [Udeinya et al. (1981), supra; Crandall et al. (1991), supra] except that BTS buffer (50 mM Bis Tris, 130 mM NaCl, pH 6.6) was substituted for BTC buffer (i.e. the Ca^+ was omitted from the cytoadherence assay buffer). Rosetting was measured as described previously [Crandall et al. (1994), supra].
(§3) In order to determine if the action of the antibody was due to the non-competitive removal of the sequence FSFCETNGLEYI [SEQ ID NO:44], the antibody's epitope, or whether it was the result of steric hindrance or induced conformational change of the protein associated with the antibody's binding, the effect of adding increased amounts of the peptide FSFCETNGLE [SEQ ID NO:26] to rosetting and cytoadherence assays was determined. […] FIG. 3A illustrates the results of adding the indicated peptides to the incubation medium of a cytoadherence assay. […]

[2] = test system: P. falciparum-infected erythrocytes; type: cell-based; details: FIG. 3A; read-out: IC50, competitive inhibition of cytoadherence
Description: as §1, §2, §3

CD36 = CD36 (Homo sapiens (Human), UniProt P16671); assay: cell-based or functional assay
human band 3 protein = human band 3 protein (human, UniProt P02730); assay: cell-based or functional assay

Molecule: FSFCETNGLE [Peptide 2f, FSFCETNGLE]
- IC50 [1]: 3 µM
- IC50 [2]: 4 µM

- 50% inhibition of sickle cell binding to HUVEC (CD36): 4 µg/mL
Molecule: GHPLQKTY [peptide 3d, GHPLQKTY]

- 50% inhibition of sickle cell binding to HUVEC (human band 3 protein): 4 µg/mL
- IC50 of inhibition of cytoadherence of P. falciparum-infected erythrocytes (human band 3 protein): 4 µM
- IC50 of inhibition of rosetting of P. falciparum-infected erythrocytes (human band 3 protein): 3 µM
Molecule: FSFCETNGLE [peptide 2f, FSFCETNGLE]

- 50% inhibition of sickle cell binding to HUVEC (CD36): 4 µg/mL
Molecule: G[dH][dP][dL][dQ][dK][dT][dY] [D-isomer of peptide 3d]
